US20210355194A1

Legend:
Details in all cases: remark: other sources report otherwise
[1] = biological target: SARS-COV2-S1 RBD (mouse IgG2Fc tag) (SARS-CoV-2), P0DTC2; assay: FACS, S1 RBD-mFc on Vero E6 (ACE2)
[2] = biological target: T1, CV S-protein construct 6 trimer TP31001F (SARS-CoV-2), P0DTC2; assay: SPR
[3] = biological target: SARS-COV2-S1 RBD (mouse IgG2Fc tag) (SARS-CoV-2), P0DTC2; assay: column not explained; likely FACS, S1 RBD on Vero E6
[4] = biological target: T1, CV S-protein construct 6 trimer …; assay: SPR; remark: listed apart in the source
[5] = biological target: SARS-COV2-S1 RBD (mouse IgG2Fc tag) (SARS-CoV-2), P0DTC2; assay: FACS, blocks S1 RBD-mFc binding to ACE2 on Vero E6

Row | Binder | Competition Factor [1] | Kd [2] [nM] | MFI Fold Decrease [3] [fold] | Kd [4] [nM] | IC50 [5] [nM]
1 | variant 6-63 (Fc fusion) VHH: EVQLVESGGGLVQPGGSLRLSCAASGQTFNMGWFRQAPGKEREFVAAIGSGGSTSYADSVKGRFTISADNSKNTAYLQMNSLKPEDTAVYYCWRLGNDYFDYWGQGTLVTVSS | 7.76 | 0.3 | 7.76 | 0.3 | 0.74
2 | variant 6-9 (Fc fusion) VHH: EVQLVESGGGLVQPGGSLRLSCAASGFTFDYYAMGWFRQAPGKEREFVSAIDSEGRTSYADSVKGRFTISADNSKNTAYLQMNSLKPEDTAVYYCARWGPFDIWGQGTLVTVSS | – | 0.9 | – | 0.9 | –
